20 molecules from patent US20260258115A1 (MAPP BIOPHARMACEUTICAL, published 2026) can be followed below.

In assay [1] the target is T1, RSV postfusion F (postF), subtype B (respiratory syncytial virus subtype B).
T1 construct: also called Postfusion subtype B
The assay is described as follows: BLI, IgG. (BLI is a label-free optical method that tracks binding on a fibre tip over time.)

The target of assay [2] is RSV F on RSV subtype A virus (RSV-A2) (Respiratory Syncytial Virus, subtype A, …, UniProt P03420 26-574). The assay is described as follows: cell-based or functional assay.
The target of assay [3] is T2, RSV postfusion F (postF), subtype A (respiratory syncytial virus subtype A, UniProt P03420 26-513).
T2 construct: also called Postfusion subtype A; F deltaFP
The assay is described as follows: BLI.

The target in assay [4] is T2, RSV postfusion F (postF), subtype A. Description: BLI, IgG.
The target of assay [5] is RSV F on RSV subtype A virus (mKate-RSV A2) (respiratory syncytial virus A2, UniProt P03420 26-574). The assay is described as follows: cell-based or functional assay.
In assay [6] the target is T3, RSV prefusion F (preF), subtype B (respiratory syncytial virus subtype B).
T3 construct: also called Prefusion subtype B
The assay is described as follows: BLI, IgG.

B1: ADI-19503 (antibody, V domains shown)
VH: QVQLVQSGAEVKKPGASVKVSCKASGYTFTSYYMHWVRQAPGQGLEWMGIINPSGGSTSYAQKFQGRVTMTRDTSTSTVYMELSSLRSEDTAVYYCARDSLVNCSGGSCPGGPDYWGQGTLVTVSS
VL: SYVLTQPPSVSVSPGQTARITCSGDALPKKYAYWYQQKSGQAPVLVIYEDSKRPSGIPERFSGSSSGTMATLTISGAQVEDEADYYCYSTDSSGNHRVFGGGTKLTVL
notes: full-length IgG
Regarding B1, in assay [1], binding was characterised by a dissociation constant (Kd) of 11.6 nM.

B2: ADI-41594 (antibody, V domains shown)
VH: EVQLVESGGGLVKPGGSLRLSCAASGFSFSSYYMNWVRQAPGKGLEWVSSISPSSSYTNYADSVKGRFTISRDNAKDSLYLQMNSLRAEDTAVYYCARDGLLGITIFGVVQDYWGQGTLVTVSS
VL: QSVVTQPPSVSGAPGQRVTISCTGSSSNIGAGYDVHWYQQLPGTAPKLLIYGNTNRPSGVPDRFSASKSGTSASLAITGLQAEDEADYYCQSYDSSLSVVFGGGTKLTVL
Take B2: in assay [2], the “Neutralization - RSV A2 IC50 (pM)” value was determined as 208 pM and the “neut IC50 (ug/ml) subtype A (wright)” value was 0.041 µg/mL.

B3: ADI-41344 (antibody, V domains shown)
VH: EVQLVESGGGLVKPGGSLRLSCAASGSSFSSYYMNWVRQAPGKGLEWVSSISSSSTYIDYADSVKGRFTISRDNAKNSLFLQMNSLRAEDTAVYYCARVSSPMIRGYYLDYWGQGTLVTVSS
VL: QPVLTQPPSVSGAPGQRVTISCTGSSSNIGAGYDVHWYQQLPGTAPKLVIHGNSNRPSGVPDRFSGSKSGTSASLAITGLQGEDEADYYCQSYDSSLSGSVFGGGTKLTVL
For B3, in assay [2], the “Neutralization - RSV A2 IC50 (pM)” value came out at 229 pM and the “neut IC50 (ug/ml) subtype A (wright)” value was 0.064 µg/mL.

B4: ADI-24846 (antibody, V domains shown)
VH: EVQLLESGGGLVKPGGSLRLSCAASGFTFSSYSMNWVRQAPGKGLEWVSSISSSSSYIYYADSVKGRFTISRDNAKNSLYLQMNSLRAEDTAVYYCARDDGILWLDYWGQGTLVTVSS
VL: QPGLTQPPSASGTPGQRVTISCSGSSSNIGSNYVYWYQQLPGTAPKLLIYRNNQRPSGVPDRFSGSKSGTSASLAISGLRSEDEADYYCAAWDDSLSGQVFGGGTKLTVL
notes: full-length IgG
Consider B4, for which the binding result in assay [3] is “no binding”. Moreover, the Kd in assay [1] stood at 29.1 nM.

B5: ADI-24803 (antibody, V domains shown)
VH: EVQLLESGGGLVLPGGSLRLSCAASGFTFSSYAMSWVRQAPGKGLEWVSAISGSGIYTYYADSVKGRFTISRDNSKNTLYLQMSSLRAEDTAVYYCAKGSLGMAYSAFDIWGLGTTVTVSS
VL: DIQLTQSPGTLSLSSGERATLSCRASQSVSSNYLAWYQQKPGQPPRLLIYGASSRATGIPDRFSGSGSGTDFTLTISRLEPEDFAVYYCQQYGSSPLTFGGGTKVDIK
notes: full-length IgG
Take B5: the Kd came to 0.442 nM in assay [1] and 1.2 nM in assay [4].

B6: ADI-19478 (antibody, V domains shown)
VH: QVQLVESGPGVVKPSETLSLTCTVSGGPVSSRSYYWGWIRQPPGKGLEWIGSIYYSGSTYYNTSLKSRVTISVDTSKNQFSLKLSSVTAADTAVYYCAKLQYSTSGFDYWGQGTLVTVSS
VL: QPVLTQPPSVSEAPRQRVTISCSGSSSNIGNNAVSWYQQLPGKAPKLLIYYDDLVPSGVSDRFSGSKSGTSASLAISGLQSEDEADYYCAAWDDSLNGVVFGGGTKLTVL
notes: full-length IgG; also called Ab 180
B6: in assay [1], the affinity, expressed as Kd, was 0.713 nM.

B7: ADI-41222 (antibody, V domains shown)
VH: QVTLKESGGGVVQPGRSQRLSCTASGFNFHNYAMHWVRQAPGKGLEWVAVISYDGSNKNFADSVKGRFTISRDNSKNTLNLQMNNLRAEDTAVYYCVRDIVRGSPLFDYWGQGTLVTVSS
VL: QPVLTQPPSLSVAPGQTAWITCGGNNIGSKIVHWYQQKPGQAPVVVVYDDDDRPSGIPERFSGSNSGNTATLTIRRVEVGDEADYYCQVWDRSSDNYVFGTGTKVSVL
Take B7: in assay [2], the “Neutralization - RSV A2 IC50 (pM)” value was determined as 39.9 pM and the “neut IC50 (ug/ml) subtype A (wright)” value was found to be 0.016 µg/mL.

B8: ADI-25573 (antibody, V domains shown)
VH: EVQLVESGAEVKKPGASVKVSCKASGYTFTSYYMHWVRQAPGQGLEWMGIINPSGGSTSYAQKFQGRVTMTRDTSTSTVYMELSSLRSEDTAVYYCARGPYDSSGYCDYWGQGTLVTVSS
VL: SYELMQPPSVSVAPGKTARITCGGNNIGSKSVHWYQQKPGQAPVLVVYDDSDRPSGTPERFSGSNSGNTATLTISRVEAGDEADYYCQVWDSSSDQVFGGGTKVTVL
notes: full-length IgG
As to B8, the binding result in assay [3] was “no binding”. Moreover, the Kd in assay [1] was determined as 48.6 nM.

B9: ADI-25575 (antibody, V domains shown)
VH: EVQLVESGAEVKKPGASVKVSCKASGYTFTSYYMHWVRQAPGQGLEWMGIINPSGGSTSYAQKFQGRVTMTRDTSTSTVYMELSSLRSEDTAVYYCARGPYDSSGYCDYWGQGTLVTVSS
VL: SYELTQPPSVSVAPGKTARITCGGNNIGSKSVHWYQQKPGQAPVLVVYDDSDRPSGIPERFSGSNSGNTATLTISRVEAGDEADYYCQVWDSSSDQVFGGGTKLTVL
notes: full-length IgG
On to B9, for which the “Neut IC50 subtype A” value in assay [5] came out at 5.64 µg/mL. Besides, the Kd in assay [1] was determined as 39.6 nM.

B10: ADI-19511 (antibody, V domains shown)
VH: QITLKESGPTLVKPTQTLTLTCTFSGFSLSTSGVGVGWIRQPPGKALEWLALIYWDDDKRYSPSLKSRLTITKDTSKNQVVLTMTNMDPVDTATYYCAHSVYYDFWSGYYVPNYFDYWGQGTLVTVSS
VL: DIQMTQSPSSLSASVGDRVTITCRASQGIRNDLGWYQQKPGKAPKRLIYAASSLQSGVPSRFSGSGSGTEFTLTISSLQPEDFATYYCLQHNSYPLTFGGGTKVEIK
notes: full-length IgG
As for B10, the binding result in assay [3] is listed as “no binding”. Further, in assay [1], the Kd was 15.3 nM.

B11: ADI-14369 (antibody, V domains shown)
VH: QVQLVQSGAEVKKPGSSVKVSCKASGGTFSSNAISWVRQAPGQGLEWMGGIIPIFATANYAQNFQDRVTITADESTGTAYMELSSLRYEDTAVYYCAKSAIHSGYHGPARSGFYQNGMDVWGQGTTVTVSS
VL: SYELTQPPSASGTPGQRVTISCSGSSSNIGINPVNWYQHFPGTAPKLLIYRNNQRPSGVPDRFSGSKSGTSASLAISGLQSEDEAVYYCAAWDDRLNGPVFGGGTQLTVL
notes: full-length IgG; also called Ab 37
As for B11, the figures for the Kd in assay [1] and in assay [6] were 0.9 nM and 3.38 nM, respectively.

B12: ADI-41563 (antibody, V domains shown)
VH: QVQLVESGPGLVKPSETLSLTCTVSDDSITNNFWTWIRQPPGKGLEWIGYIYYSGSTNYNPSLKSRITMSVDLSKNQFSLKLSSVTAADTAVYYCARLTSGGVDYWGQGTLVTVSS
VL: QSVLTQPPSLSGAPGQRVTISCTGSSSNIGADYHVHWYQQLPGTAPKLLIYQNTNRPSGVPDRFSASKSGTSVSLAITGLQAEDEADYYCQSYDSSLSAWVFGGGTKLTVL
Take B12: in assay [2], the “Neutralization - RSV A2 IC50 (pM)” value is 139 pM and the “neut IC50 (ug/ml) subtype A (wright)” value amounted to 0.032 µg/mL.

B13: ADI-24793 (antibody, V domains shown)
VH: QVQLVQSGAEVKKPGESLKISCKGSGYSFTSYWIGWVRQMPGKGLEWMGIIYPGDSDTRYSPSFQGQVTISADKSISTAYLQWSSLKASDTAMFYCVMGSYSYYFDYWGQGTLVTVSS
VL: NFMLTQPHSVSESPGKTVTISCTRSSGSIASNYVQWYQQRPGSAPTTVIYEDNLRPSGVPDRFSGSIDSSSNSASLTISGLKTEDEADYYCQSYDSSNQVFGGGTKLTVL
notes: full-length IgG
Turning to B13, the binding result in assay [3] is “no binding”. The affinity in assay [1], expressed as Kd, was 26.8 nM.

B14: ADI-25576 (antibody, V domains shown)
VH: EVQLVESGGGLVQPGGSLRLSCAASGFTFSSYWMHWVRQAPGKGLVWVSRINSDGSSTSYADSVKGRFTISRDNAKNTLYLQMNSLRAEDTAVYYCARGLYNWNHDYWGQGTLVTVSS
VL: NFMLTQPHSVSESPGKTVTISCTRSSGSIASNYVQWYQQRPGSSPTTVIYEDNQRPSGVPDRFSGSIDSSSNSASLTISGLKTEDEADYYCQSYDSSNVVFGGGTKVTVL
notes: full-length IgG; also called Ab 460
Molecule B14 yielded a Kd in assay [1] of 23.9 nM.

B15: ADI-19497 (antibody, V domains shown)
VH: QVQLVQSGAEVKKPGASVKVSCKASGYTFTSYYMHWVRQAPGQGLEWMGIINPSGGSTSYAQKFQGRVTMTRDTSTSTVYMELSSLRSEDTAVYYCSRGYSYGYDYWGQGTLVTVSS
VL: NFMLTQPHSVSESPGKTVTISCTRSSGSIASNYVQWYQQRPGSSPTTVIYEDNQRPSGVPDRFSGSIDSSSNSASLTISGLKTEDEADYYCQSYDSSNWVFGGGTKLTVL
notes: full-length IgG
In assay [1], B15 returned a Kd of 13.4 nM.

B16: ADI-41249 (antibody, V domains shown)
VH: QVQLVQSGAEVKKPGESLKISCQVSRDTSTTYWIGWVRQMPGKGLEWMGIIFPGDSDTRYSPSFQGQVTISADKSIMTAYLQLTSLKASDTAMYYCATQALRGAFDIWGQGTMVTVSS
VL: DIRLTQSPSSLSASVGDRVTITCQASQDISNYLNWYQQKPGKAPKLLIYDASYLETGVPSRFSGSGSGTDFTFTISSLQPEDFATYYCQQYDDLLFTFGPGTKLEIK
With B16, in assay [2], the “Neutralization - RSV A2 IC50 (pM)” value worked out at 51.7 pM and the “neut IC50 (ug/ml) subtype A (wright)” value was 0.006 µg/mL.

B17: ADI-22772 (antibody, V domains shown)
VH: EVQLVESGGGVVQPGRSLRLSCAASGFTFSSYAMHWVRQAPGKGLEWVAVISYDGSNKYYADSVKGRFTISRDNSKNTLYLQMNSLRAEDTAVYYCARAVEQQLFIWYYGMDVWGQGTTVTVSS
VL: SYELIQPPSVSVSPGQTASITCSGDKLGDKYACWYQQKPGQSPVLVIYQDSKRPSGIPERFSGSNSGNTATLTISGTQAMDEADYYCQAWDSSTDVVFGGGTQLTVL
notes: full-length IgG
Consider B17, for which, in assay [3], the binding result is on record as “no binding”. The same molecule gave a Kd in assay [1] of 50.2 nM.

B18: ADI-41232 (antibody, V domains shown)
VH: QVQLVQSGAEVKKPGASVKVSCKASGYTFTHYGISWVRQAPGQGLEWMAWISAYNGNTNYAQKLQDRVTVTTDTSTSTAYMELRSLRSDDTALYYCARDSMGGTTLFDYWGQGTLVTVSS
VL: DIVLTQTPLSLPVTLGQPASISCRSSQSLVYSDGNTYLNWFQQRPGQSPRRLIYKVSNRDSGVPDRFTGSGSGTDFTLKISRVEAEDVGVYYCMQGTHWPPMYTFGQGTKLEIK
Take B18: in assay [2], the “Neutralization - RSV A2 IC50 (pM)” value was found to be 104 pM and the “neut IC50 (ug/ml) subtype A (wright)” value was 0.025 µg/mL.

B19: ADI-24825 (antibody, V domains shown)
VH: QVQLVQSGAEVKKPGASVKVSCKASGYTFTSYDINWVRQATGQGLEWMGWMNPNSGNTGYAQKFQGRVTMTRNTSISTAYMELSSLRSEDTAVYYCSSVGGYYYYGMDVWGQGTTVTVSS
VL: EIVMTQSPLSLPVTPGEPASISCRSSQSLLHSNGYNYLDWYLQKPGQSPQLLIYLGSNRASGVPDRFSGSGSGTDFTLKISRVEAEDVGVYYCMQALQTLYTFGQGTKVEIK
notes: full-length IgG
B19: the Kd in assay [1] turned out to be 26 nM; in assay [4], 30.1 nM.

B20: ADI-14356 (antibody, V domains shown)
VH: QVQLQESGAGLLKPSETLSLTCAVYGGSFSGYYWSWIRQPPGKGLEWIGEINHSGSTNYNPSLKSRVTISVDTSKNQFSLKLSSVTAADTAVYYCARDQRIVVVGAATEPYYYYYGMDVWGQGTTVTVSS
VL: QPVLTQPPSVSVSPGQTARITCSGDALPKQYAYWYQQKPGQAPVLVIYKDSERPSGIPERFSGSSSGTTVTLTISGVQAEDEADYYCQSADSSGTYRVFGGGTKLTVL
notes: full-length IgG; also called Ab 24
For the molecule B20, the results for the dissociation constant (Kd) in assay [1] and in assay [6] were 4.98 nM and 13 nM, respectively.

The Kd is a measure of binding affinity in units of concentration. Higher therefore signals lower affinity.
